Reference: PMC10505172, “Discovery and pharmacophoric characterization of chemokine network inhibitors using phage-display, saturation mutagenesis and computational modelling” (Nature Communications, 2023)
Ends that are not written are not given here.

Assays:
CCL8 = target: T1, CCL8 (human, UniProt P80075 24-99); experiment: cell-based or functional assay
T1 sequence (looked up): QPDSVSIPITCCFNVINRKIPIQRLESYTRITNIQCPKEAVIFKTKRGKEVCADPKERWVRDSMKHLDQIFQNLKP

CXCL6 = CXCL6 (human, UniProt P80162 38-114); experiment: cell-based or functional assay

B1: HD2 synthetic peptide (peptide)
peptide: EEDDYTAYAPLTCYFT-NH2
IC50 (median of biological replicates) of inhibition of CCL8-induced cell migration, chemokine at EC80 (CCL8): 1.9e-08 molar
IC50 (median of biological replicates) of inhibition of CXCL6-induced cell migration, chemokine at EC80 (CXCL6): 1.4e-05 molar
